Experimental data taken from patent US20200354457A1 (Hoffmann-La Roche, published 2020).
Several values for one entry are separate records, joined by “and”; a condition that tells them apart may be missing. Equal entries are not always repeated.

B1: MCSP-specific disulfide-stabilized aVH clone 57.1 (VHH)
VHH: EVQLVESGGGLVQPGGSLRLSCAASGFNIKQNCIEWVRRAPGKGTELVANICHDIGSTRYADSVKGRFTISADTSKNTAYLQMNSLRAEDTAVYYCAAWEQKGFNYWGQGTTVTVSS
notes: Autonomous human VH domain purified from E. coli
B2: MCSP-specific disulfide-stabilized aVH clone 2 (VHH)
VHH: EVQLVESGGGLVQPGGSLRLSCAASSFNIKDTYIGWVRRAPGKGTELVASIDCIYGYTRYADSVKGRFTISCDTSKNTAYLQMNSLRAEDTAVYYCAAQGYRLHYWGQGTTVTVSS
notes: Autonomous human VH domain purified from E. coli by IMAC
B3: MCSP-specific disulfide-stabilized aVH clone 44 (VHH)
VHH: EVQLVESGGGLVQPGGSLRLSCAASGFNIKDGYIDWVRRAPGKGTELVASIECTNGRATRYADSVKGRFTISCDTSKNTAYLQMNSLRAEDTAVYYCAYAGIGYYFYYWGQGTTVTVSS
notes: as for B1
B4: bivalent 9B4 aVH-Fc (Fc fusion)
chain: EVQLVESGGGLVQPGGSLRLSCAASGFNIKDTCIGWVRRAPGKGTELVAEICQDIGYTRYADSVKGRFTISADTSKNTAYLQMNSLRAEDTAVYYCAAVEVAEYFEYWGQGTTVTVSSGGGGSGGGGSDKTHTCPPCPAPEAAGGPSVFLFPPKPKDTLMISRTPEVTCVVVDVSHEDPEVKFNWYVDGVEVHNAKTKPREEQYNSTYRVVSVLTVLHQDWLNGKEYKCKVSNKALGAPIEKTISKAKGQPREPQVYTLPPSRDELTKNQVSLTCLVKGFYPSDIAVEWESNGQPENNYKTTPPVLDSDGSFFLYSKLTVDKSRWQQGNVFSCSVMHEALHNHYTQKSLSLSPGK
B5: bivalent 17D7 aVH-Fc (Fc fusion)
chain: EVQLVESGGGLVQPGGSLRLSCAASGFNIKDTCIGWVRRAPGKGTELVAEICTDIGYTRYADSVKGRFTISADTSKNTAYLQMNSLRAEDTAVYYCAAGEGSSGFHYWGQGTTVTVSSGGGGSGGGGSDKTHTCPPCPAPEAAGGPSVFLFPPKPKDTLMISRTPEVTCVVVDVSHEDPEVKFNWYVDGVEVHNAKTKPREEQYNSTYRVVSVLTVLHQDWLNGKEYKCKVSNKALGAPIEKTISKAKGQPREPQVYTLPPSRDELTKNQVSLTCLVKGFYPSDIAVEWESNGQPENNYKTTPPVLDSDGSFFLYSKLTVDKSRWQQGNVFSCSVMHEALHNHYTQKSLSLSPGK
B6: bivalent P11E9 aVH-Fc (Fc fusion)
chain: EVQLVESGGGLVQPGGSLRLSCAASGFNIKDTCIGWVRRAPGKGTELVAEICHDIGYTRYADSVKGRFTISADTSKNTAYLQMNSLRAEDTAVYYCAAEEHVASFEYWGQGTTVTVSSGGGGSGGGGSDKTHTCPPCPAPEAAGGPSVFLFPPKPKDTLMISRTPEVTCVVVDVSHEDPEVKFNWYVDGVEVHNAKTKPREEQYNSTYRVVSVLTVLHQDWLNGKEYKCKVSNKALGAPIEKTISKAKGQPREPQVYTLPPSRDELTKNQVSLTCLVKGFYPSDIAVEWESNGQPENNYKTTPPVLDSDGSFFLYSKLTVDKSRWQQGNVFSCSVMHEALHNHYTQKSLSLSPGK
B7: bivalent P11E2 aVH-Fc (Fc fusion)
chain: EVQLVESGGGLVQPGGSLRLSCAASGFNIKDTCIGWVRRAPGKGTELVAEICDDIGYTRYADSVKGRFTISADTSKNTAYLQMNSLRAEDTAVYYCASQEHQWSFKYWGQGTTVTVSSGGGGSGGGGSDKTHTCPPCPAPEAAGGPSVFLFPPKPKDTLMISRTPEVTCVVVDVSHEDPEVKFNWYVDGVEVHNAKTKPREEQYNSTYRVVSVLTVLHQDWLNGKEYKCKVSNKALGAPIEKTISKAKGQPREPQVYTLPPSRDELTKNQVSLTCLVKGFYPSDIAVEWESNGQPENNYKTTPPVLDSDGSFFLYSKLTVDKSRWQQGNVFSCSVMHEALHNHYTQKSLSLSPGK

Assays:
[1] = target: T1, biotinylated MCSP antigen (amino acids 1553 to 2184 of matured melanoma-associated chondroitin sulfate … (Homo sapiens (Human), UniProt Q6UVK1 1582-2213, limits assumed, biotin on the C-terminal avi-tag)); experiment: SPR (ProteOn XPR36), biotinylated MCSP captured on NLC chip, purified aVH as analyte, 25 C
T1 construct: The entry may include the leader; also called recombinant MCSP
T1 sequence: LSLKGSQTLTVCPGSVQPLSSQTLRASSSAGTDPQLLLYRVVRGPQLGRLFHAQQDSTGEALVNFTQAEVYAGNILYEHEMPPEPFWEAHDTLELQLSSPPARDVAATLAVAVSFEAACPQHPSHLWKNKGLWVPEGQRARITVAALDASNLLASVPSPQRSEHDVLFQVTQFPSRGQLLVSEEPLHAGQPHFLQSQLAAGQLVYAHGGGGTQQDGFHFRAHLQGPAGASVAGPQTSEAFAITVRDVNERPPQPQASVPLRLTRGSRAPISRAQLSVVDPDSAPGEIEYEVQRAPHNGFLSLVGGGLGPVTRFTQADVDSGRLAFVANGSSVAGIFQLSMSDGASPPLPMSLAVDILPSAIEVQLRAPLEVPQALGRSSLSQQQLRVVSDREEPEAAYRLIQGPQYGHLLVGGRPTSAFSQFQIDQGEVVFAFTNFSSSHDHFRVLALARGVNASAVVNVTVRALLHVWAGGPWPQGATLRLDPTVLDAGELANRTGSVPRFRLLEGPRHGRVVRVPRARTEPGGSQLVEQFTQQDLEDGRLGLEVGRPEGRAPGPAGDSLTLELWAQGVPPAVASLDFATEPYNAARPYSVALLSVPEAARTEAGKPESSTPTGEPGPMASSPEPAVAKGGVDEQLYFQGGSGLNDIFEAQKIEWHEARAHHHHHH

[2] = target: T2, cynomolgus LAG3 on transiently transfected HEK293F cells (cynomolgus); experiment: flow cytometry on HEK293F cells transfected with cyno LAG3, 10 µg/ml
T2 construct: whole, on cells; also called cyno LAG3; cynomolgus Lag3-positive HEK cells

[3] = target: T3, human LAG3 on recombinant CHO cells (human, UniProt P18627 23-525); experiment: cell ELISA on CHO cells expressing human LAG3;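 also: bivalent Fc-format binders titrated in threefold steps from 6 µg/mL, incubated with the cells 2 h at 4 °C, bound antibody detected by HRP-coupled anti-human IgG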
T3 construct: whole, on cells; also called Lag3 cells; recombinant CHO cells expressing Lag3
T3 sequence (looked up): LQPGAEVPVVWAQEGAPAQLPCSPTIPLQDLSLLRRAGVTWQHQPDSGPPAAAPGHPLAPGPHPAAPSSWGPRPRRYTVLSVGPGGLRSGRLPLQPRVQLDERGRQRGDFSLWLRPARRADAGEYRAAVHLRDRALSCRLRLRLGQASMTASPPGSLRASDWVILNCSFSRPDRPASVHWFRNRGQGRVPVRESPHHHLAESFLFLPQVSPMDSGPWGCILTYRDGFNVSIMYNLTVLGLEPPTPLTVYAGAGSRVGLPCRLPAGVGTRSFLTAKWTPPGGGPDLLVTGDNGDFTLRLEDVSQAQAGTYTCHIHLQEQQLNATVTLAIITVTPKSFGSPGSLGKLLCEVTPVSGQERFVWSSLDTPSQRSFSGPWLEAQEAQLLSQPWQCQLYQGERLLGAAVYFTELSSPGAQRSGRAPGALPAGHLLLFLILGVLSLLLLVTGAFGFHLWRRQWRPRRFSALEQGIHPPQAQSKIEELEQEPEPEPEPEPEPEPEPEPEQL

[4] = target: T4, soluble human Lag3-IgG1-Fc with biotinylated C-terminal Avi-tag (human, biotin on the C-terminal Avi-tag); experiment: A375 MHCII competition ELISA at 3 µg/ml, biotinylated Lag3 250 ng/ml; competitor MHCII on A375 cells
T4 construct: also called LAG3-Fc-avi; biotinylated LAG3-Fc antigen

[5] = target: T4, soluble human Lag3-IgG1-Fc with …; experiment: A375 MHCII competition ELISA, biotinylated Lag3 250 ng/ml; competitor MHCII on A375 cells
[6] = target: T5, murine LAG3-Fc antigen (R&D Systems, 3328-L3-050) (murine, UniProt Q61790 24-442); experiment: ELISA using murine LAG3-Fc antigen
T5 construct: Bought reagent
T5 sequence (looked up): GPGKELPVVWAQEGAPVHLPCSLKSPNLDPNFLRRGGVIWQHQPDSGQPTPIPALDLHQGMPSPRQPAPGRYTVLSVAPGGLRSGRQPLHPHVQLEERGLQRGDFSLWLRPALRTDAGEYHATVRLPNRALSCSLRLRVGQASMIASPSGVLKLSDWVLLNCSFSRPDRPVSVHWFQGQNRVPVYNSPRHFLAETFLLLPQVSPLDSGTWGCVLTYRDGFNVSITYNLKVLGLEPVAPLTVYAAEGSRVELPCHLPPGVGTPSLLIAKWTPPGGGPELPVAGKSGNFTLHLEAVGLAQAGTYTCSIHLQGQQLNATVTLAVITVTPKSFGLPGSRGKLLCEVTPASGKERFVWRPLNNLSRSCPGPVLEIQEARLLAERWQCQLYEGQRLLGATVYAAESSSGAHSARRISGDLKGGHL

[7] = target: T6, recombinant human LAG3 Fc Chimera Protein (R&D Systems, 2319-L3) (human, UniProt P18627 23-450); experiment: SPR (Biacore), aVH-Fc captured by anti-human Fc, human LAG-3 Fc chimera as analyte, 25 C
T6 construct: Bought reagent
T6 sequence (looked up): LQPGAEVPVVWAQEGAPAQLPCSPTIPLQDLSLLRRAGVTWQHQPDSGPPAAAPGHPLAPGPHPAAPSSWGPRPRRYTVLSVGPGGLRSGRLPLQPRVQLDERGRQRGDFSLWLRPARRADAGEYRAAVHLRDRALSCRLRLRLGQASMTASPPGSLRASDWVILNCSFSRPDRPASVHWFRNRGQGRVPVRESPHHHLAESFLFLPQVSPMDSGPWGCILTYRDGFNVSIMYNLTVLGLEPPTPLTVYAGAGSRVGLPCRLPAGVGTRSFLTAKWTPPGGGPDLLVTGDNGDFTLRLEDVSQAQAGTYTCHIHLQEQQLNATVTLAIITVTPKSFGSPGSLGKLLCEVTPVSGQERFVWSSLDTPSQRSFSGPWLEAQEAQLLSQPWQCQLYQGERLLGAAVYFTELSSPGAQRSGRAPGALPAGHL

[8] = target: T6, recombinant human LAG3 Fc Chimera …; experiment: ELISA, plate coated with human LAG3 Fc chimera

Binder | Kd [1] [nM] | koff [1] [s⁻¹] | kon [1] [M⁻¹ s⁻¹] | LAG3 positive cells (%) [2] [%] | Signal intensity (Geo Mean) [2] [Geo Mean] | EC50 [3] | OD max [3] [OD] | % Inhibition [4] [%] | IC50 [5] | binding result [6] | koff [7] [s⁻¹] | t1/2 [7] [h] | EC50 [8] | OD max [8] [OD]
B1 | 48 | 0.0142 | 295000 | – | – | – | – | – | – | – | – | – | – | –
B2 | 8 | 0.00339 | 458000 | – | – | – | – | – | – | – | – | – | – | –
B3 | 109 | 0.0163 | 150000 | – | – | – | – | – | – | – | – | – | – | –
B4 | – | – | – | 68.8 | 2060 | 0.0288 µg/mL and 0.4 nM | 1.3 | 95.5 | 0.0762 µg/mL and 1 nM | no binding | 0.00019 | 1.02 | 0.0194 µg/mL and 0.3 nM | 1.2
B5 | – | – | – | 63.6 | 1980 | 0.0354 µg/mL and 0.5 nM | 1.4 | 91.7 | 0.104 µg/mL and 1.4 nM | no binding | 0.00018 | 1.1 | 0.0145 µg/mL and 0.2 nM | 1.2
B6 | – | – | – | – | – | 0.0375 µg/mL and 0.5 nM | 1.3 | 97.2 | 0.086 µg/mL and 1.1 nM | no binding | 2.4e-05 | 8.16 | 0.121 µg/mL and 1.6 nM | 1.9
B7 | – | – | – | – | – | 0.0603 µg/mL and 0.8 nM | 1.2 | 91 | 0.155 µg/mL and 2.1 nM | no binding | 6.8e-05 | 2.83 | 0.143 µg/mL and 1.9 nM | 1.1
